Patent WO2010064089A1

Key:
[1] = target: C-Met-Rluc expressed with a mutated form of Gab1 fused to YFP in a CHO stable cell line (c-Met activation BRET model) (R. reniformis), P08581; assay: cell-based or functional assay
[2] = target: C-Met-Rluc and C-Met-K1100A-YFP co-expressed in a CHO stable cell line (c-Met dimerization BRET model) (R. reniformis), P08581; assay: cell-based or functional assay

B1: murine 224G11 Mab (antibody, mouse IgG1, V domains shown)
VH: EVQLQQSGPELVKPGASVKISCKTSGYIFTAYTMHWVRQSLGESLDWIGGIKPNNGLANYNQKFKGKATLTVDKSSSTAYMDLRSLTSEDSAVYYCARSEITTEFDYWGQGTALTVSS
VL: DIVLTQSPASLAVSLGQRATISCRASESVDSYANSFMHWYQQKPGQPPKLLIYRASNLESGIPARFSGSGSRTDFTLTINPVEADDVATYYCQQSKEDPLTFGSGTKLEMKR
[1]
  inhibition of the HGF induced BRET signal, c-Met activation model: 56.4%
[2]
  BRET signal with Mab alone, c-Met dimerization model (% of HGF-induced signal): 21.3
  inhibition of the HGF induced BRET signal, c-Met dimerization model: 59.4%

B2: [224G11][MUP9H chim] (antibody, human IgG1, V domains shown)
VH: EVQLQQSGPELVKPGASVKISCKTSGYIFTAYTMHWVRQSLGESLDWIGGIKPNNGLANYNQKFKGKATLTVDKSSSTAYMDLRSLTSEDSAVYYCARSEITTEFDYWGQGTALTVSS
VL: DIVLTQSPASLAVSLGQRATISCRASESVDSYANSFMHWYQQKPGQPPKLLIYRASNLESGIPARFSGSGSRTDFTLTINPVEADDVATYYCQQSKEDPLTFGSGTKLEMKR
[1]
  BRET signal with Mab alone, c-Met activation model: 7.6%
  inhibition of the HGF induced activation BRET signal: 64.4%
[2]
  inhibition of the HGF induced c-Met dimerization BRET signal: 64.4%

B3: [224G11]chim (antibody, human IgG1, V domains shown)
VH: EVQLQQSGPELVKPGASVKISCKTSGYIFTAYTMHWVRQSLGESLDWIGGIKPNNGLANYNQKFKGKATLTVDKSSSTAYMDLRSLTSEDSAVYYCARSEITTEFDYWGQGTALTVSS
VL: DIVLTQSPASLAVSLGQRATISCRASESVDSYANSFMHWYQQKPGQPPKLLIYRASNLESGIPARFSGSGSRTDFTLTINPVEADDVATYYCQQSKEDPLTFGSGTKLEMKR
[1]
  BRET signal with Mab alone, c-Met activation model (% of the HGF induced signal): 32.9
  inhibition of the HGF induced BRET signal, c-Met activation model: 34.5%
[2]
  BRET signal with Mab alone, c-Met dimerization model (% of HGF-induced signal): 46.6
  inhibition of the HGF induced BRET signal, c-Met dimerization model: 28.9%

B4: [224G11][MH chim] (antibody, human IgG1, V domains shown)
VH: EVQLQQSGPELVKPGASVKISCKTSGYIFTAYTMHWVRQSLGESLDWIGGIKPNNGLANYNQKFKGKATLTVDKSSSTAYMDLRSLTSEDSAVYYCARSEITTEFDYWGQGTALTVSS
VL: DIVLTQSPASLAVSLGQRATISCRASESVDSYANSFMHWYQQKPGQPPKLLIYRASNLESGIPARFSGSGSRTDFTLTINPVEADDVATYYCQQSKEDPLTFGSGTKLEMKR
[1]
  BRET signal with Mab alone, c-Met activation model: 5.1%
  inhibition of the HGF induced activation BRET signal: 59.7%
[2]
  inhibition of the HGF induced c-Met dimerization BRET signal: 61.8%

B5: [224G11][MMCH chim] (antibody, human IgG1, V domains shown)
VH: EVQLQQSGPELVKPGASVKISCKTSGYIFTAYTMHWVRQSLGESLDWIGGIKPNNGLANYNQKFKGKATLTVDKSSSTAYMDLRSLTSEDSAVYYCARSEITTEFDYWGQGTALTVSS
VL: DIVLTQSPASLAVSLGQRATISCRASESVDSYANSFMHWYQQKPGQPPKLLIYRASNLESGIPARFSGSGSRTDFTLTINPVEADDVATYYCQQSKEDPLTFGSGTKLEMKR
[1]
  BRET signal with Mab alone, c-Met activation model: -2%
  inhibition of the HGF induced activation BRET signal: 53.2%
[2]
  inhibition of the HGF induced c-Met dimerization BRET signal: 52.5%

B6: [224G11][IgG2 chim] (antibody)
heavy: EVQLQQSGPELVKPGASVKISCKTSGYIFTAYTMHWVRQSLGESLDWIGGIKPNNGLANYNQKFKGKATLTVDKSSSTAYMDLRSLTSEDSAVYYCARSEITTEFDYWGQGTALTVSSASTKGPSVFPLAPCSRSTSESTAALGCLVKDYFPEPVTVSWNSGALTSGVHTFPAVLQSSGLYSLSSVVTVPSSNFGTQTYTCNVDHKPSNTKVDKTVERKCCVECPPCPAPPVAGPSVFLFPPKPKDTLMISRTPEVTCVVVDVSHEDPEVQFNWYVDGVEVHNAKTKPREEQFNSTFRVVSVLTVVHQDWLNGKEYKCKVSNKGLPAPIEKTISKTKGQPREPQVYTLPPSREEMTKNQVSLTCLVKGFYPSDIAVEWESNGQPENNYKTTPPMLDSDGSFFLYSKLTVDKSRWQQGNVFSCSVMHEALHNHYTQKSLSLSPG
light: DIVLTQSPASLAVSLGQRATISCRASESVDSYANSFMHWYQQKPGQPPKLLIYRASNLESGIPARFSGSGSRTDFTLTINPVEADDVATYYCQQSKEDPLTFGSGTKLEMKRTVAAPSVFIFPPSDEQLKSGTASVVCLLNNFYPREAKVQWKVDNALQSGNSQESVTEQDSKDSTYSLSSTLTLSKADYEKHKVYACEVTHQGLSSPVTKSFNRGEC
[1]
  inhibition of the HGF effect, c-Met activation BRET model: 66.3%
[2]
  inhibition of the HGF induced BRET signal, c-Met dimerization model: 62.4%
